From article PMC7489885 (Cell, 2020)

Target: SARS-CoV-2 RBD (residues 319-541) with an N-terminal His6 tag (SARS-CoV-2, UniProt P0DTC2)
Test: crystal structure

B1: BD-236 Fab (Fab, V domains shown)
VH: EVQLVESGGGLIQPGGSLRLSCAASGITVSSNYMSWVRQAPGKGLEWVSVIYSGGSTDYADSVKGRFTISRDKSKNTLYLQMNSLRAEDTAVYYCARDLGEAGGMDVWGQGTTVTVSS
VL: AIQLTQSPSSLSASVGDRVTITCRASQGISSYLAWYQQKPGKAPKLLIYAASTLQSGVPSRFSGSGSGTDFTLTISSLQPEDFATYYCQQLNSYPPAFGGGTKVEIK
B1: binds.
